Assay [1] addresses T1, rat IL1RAP (Met1-Val570 plus Myc-DDK) on transfected 293 cells (Rattus norvegicus, UniProt Q63621 21-570).
T1 construct: whole, on cells; also called RR213032
Description: flow cytometry on 293 cells expressing rat IL1RAP (293-puro-ratIL1RAP) vs 293T-puro [cont.]. How it is done: (§1) Staining for flow cytometry was performed in 1× cold PBS with 0.5% BSA. Primary antibodies (1 ug/ml) were incubated with live cells on ice for 30 minutes, after a brief wash, cells were incubated with Alexa Fluro® 488-conjugated anti-human IgG secondary antibody @1:1000 (709-546-149, Jackson ImmunoResearch). Acquisition of the data was performed on a MACSQuant® Flow Cytometers (Miltenyi Biotec) and analyzed with FlowJo software.

In assay [2] the target is T2, huIL1RAP ECD recombinant protein (human, UniProt Q9NPH3 21-367).
T2 construct: also called recombinant human IL1RAP-ECD; recombinant human IL1RAP; not shown: C-terminal histidine tag for purification
Description: Octet BLI, antibody on Protein A biosensor, recombinant huIL1RAP ECD. As for the experimental part: Affinity: The affinity of antibodies to various recombinant IL1RAP protein was determined on an Octet Red™ instrument. After loading reagents into a 96-well plate, the Octet Red™ with Protein A-conjugated biosensors was programmed as follows: 30 seconds for baseline #1; 120 seconds to immobilize the antibody; 30 seconds for baseline #2; 300 seconds for association of antibody to recombinant IL1RAP; and 300-600 seconds for dissociation of recombinant IL1RAP from the antibody.

Assay [3] concerns the target T3, human IL1RAP on IL1RAP positive human cell lines (EOL-1, Karpas 299; HEK-Blue reporter cells) (human, UniProt Q9NPH3 21-570). Description: cell-based or functional assay.
Assay [4] has as its target T3, human IL1RAP on IL1RAP positive human …. Description: cell-based or functional assay. This is another data set of the same source.
Assay [5] has the same target. Description: cell-based or functional assay. The source holds these as a separate data set.
Assay [6] addresses T4, mouse IL1RAP (Met1-Val570 plus Myc-DDK) on transfected 293 cells (Mus musculus, UniProt Q61730 21-570).
T4 construct: whole, on cells; also called MR223729
Description: flow cytometry on 293 cells expressing mouse IL1RAP (293-puro-mouseIL1RAP) vs 293T-puro [cont.]. How it is done: as §1

The target of assay [7] is T3, human IL1RAP on IL1RAP positive human …. Description: cell-based or functional assay. This is another data set of the same source.
Assay [8] concerns the target T1, rat IL1RAP (Met1-Val570 plus Myc-DDK) …. Description: flow cytometry on 293 cells expressing rat IL1RAP (293-puro-ratIL1RAP) vs 293T-puro; 1 ug/ml antibody, Alexa 488 anti-human IgG secondary. As for the experimental part:
as §1
A general note: A flow cytometer gives signals particle by particle.

For assay [9] the target is unchanged. Description: flow cytometry on 293 cells expressing rat IL1RAP (293-puro-ratIL1RAP) vs 293T-puro. How it is done:
as §1

Assay [10] deals with T4, mouse IL1RAP (Met1-Val570 plus Myc-DDK) …. Description: flow cytometry on 293 cells expressing mouse IL1RAP (293-puro-mouseIL1RAP) vs 293T-puro. How it is done: as §1

T4 sequence (Q61730 21-570): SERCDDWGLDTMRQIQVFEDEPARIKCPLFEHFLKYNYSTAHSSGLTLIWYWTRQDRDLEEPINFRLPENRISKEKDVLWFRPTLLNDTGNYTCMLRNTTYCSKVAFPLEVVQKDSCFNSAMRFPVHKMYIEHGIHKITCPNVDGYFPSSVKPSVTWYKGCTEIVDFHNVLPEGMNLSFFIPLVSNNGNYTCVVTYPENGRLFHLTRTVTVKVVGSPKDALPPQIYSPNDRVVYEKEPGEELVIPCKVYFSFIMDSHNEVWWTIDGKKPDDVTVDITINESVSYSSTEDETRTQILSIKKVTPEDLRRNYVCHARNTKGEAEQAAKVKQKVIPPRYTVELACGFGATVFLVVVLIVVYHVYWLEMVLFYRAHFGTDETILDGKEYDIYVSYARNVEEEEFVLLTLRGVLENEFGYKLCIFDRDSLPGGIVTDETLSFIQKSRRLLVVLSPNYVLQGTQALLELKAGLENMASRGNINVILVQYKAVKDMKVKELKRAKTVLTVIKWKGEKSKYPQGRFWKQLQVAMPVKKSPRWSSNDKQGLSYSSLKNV
T1 sequence (Q63621 21-570): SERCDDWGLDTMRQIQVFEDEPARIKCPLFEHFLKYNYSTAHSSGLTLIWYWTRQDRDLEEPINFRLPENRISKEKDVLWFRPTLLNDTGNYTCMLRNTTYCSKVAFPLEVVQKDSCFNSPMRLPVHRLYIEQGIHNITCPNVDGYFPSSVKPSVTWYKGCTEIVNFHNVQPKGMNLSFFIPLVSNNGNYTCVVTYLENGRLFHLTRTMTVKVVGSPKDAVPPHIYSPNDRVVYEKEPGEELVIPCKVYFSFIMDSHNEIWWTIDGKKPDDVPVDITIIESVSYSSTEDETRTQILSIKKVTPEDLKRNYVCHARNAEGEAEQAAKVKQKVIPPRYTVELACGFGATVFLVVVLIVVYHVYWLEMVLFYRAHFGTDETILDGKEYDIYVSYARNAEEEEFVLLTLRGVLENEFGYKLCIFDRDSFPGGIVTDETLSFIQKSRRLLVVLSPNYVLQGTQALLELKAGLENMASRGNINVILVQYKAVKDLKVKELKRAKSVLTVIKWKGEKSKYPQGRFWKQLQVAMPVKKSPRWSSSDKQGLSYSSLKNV

B1: 39G1_21C4 (antibody, V domains shown)
VH: QVQLQESGPGLVKPSETLSLTCAVSGYSASGVYYWGWIRQPPGKGLEWIGNIYHSGSTYYNPSLERRVSISLDTSKNHFSLRLNFVTAADTAVYYCARDRFDAFDIWGQGTMVTVSS
VL: EIVMTQSPATLSVSPGERATLSCRASQSINNILAWYQQKPGQAPRLLIYGASTRATGIPARFSGSGSGTEFTLTISSLQSEDFAVYYCQQYNNWPLTFGGGTKVEIK
For the molecule B1, the binding result in assay [1] is on record as “no binding (tested: 1 ug/ml)”. In addition, the Kd (as a rule, the constant that tells how readily two partners part at equilibrium) in [2] turned out to be 1.6 nM.

B2: 37E10_15B5 (antibody, V domains shown)
VH: QVQLVESGGGVVQPGRSLRLSCAASGFTFRSHGMHWVRQAPGKGLEWVAVIWYDGSSEYYADSVKGRFTISRDNSKNTLYLQMNSLRAEDTAVYYCARENVYGSGWFFDYWGQGTLVTVSS
VL: EIVMTQSPATLSVSPGERASLSCRASQSVGSNLAWYQQRPGQAPRLLIFGASTRATGIPARFSGSRSGTEFTLTISSLQSEDFALYYCQQYNNWPPWTFGQGTKLEIK
notes: also called BFB759
On to B2, for which the “EC50, inhibition of signalling by 0.5 ng/ml IL-33 in HEK-Blue IL-33 reporter cells (Abs. 620 nm); the curve levels off at about 0.4, not at 0” value in [3] was found to be 0.32 nM. In addition, the binding result in [1] is “no binding (tested: 1 ug/ml)”. Besides, the “EC50, inhibition of signalling by 0.5 ng/ml IL-1a (IL-1alpha) in the HEK-Blue IL-1 reporter assay (Abs. 620 nM)” value in [4] is 0.19 nM. Further, in [5], the “EC50 against IL-1alpha signaling, IL-1 reporter assay” value is under 1 nM and the “EC50 against IL-1beta signaling, IL-1 reporter assay” value was under 1 nM. The binding result in [6] is given as “no binding (tested: 1 ug/ml)”. In addition, the “EC50, inhibition of signalling by 0.5 ng/ml IL-1beta in HEK-Blue IL-1beta reporter cells (Abs. 620 nM)” value in assay [7] turned out to be 0.15 nM. The Kd in assay [2] was 0.3 nM.

B3: 44E5_15C5 (antibody, V domains shown)
VH: QVQLVESGGGVVQPGRSLRLSCAASGFTFRSHGMHWVRQAPGKGLEWVAVIWYDGSSDYYADSVKGRFTISRDNSKNTLFLQMNSLSAEDTAVYYCARENVYGSGWFFDYWGQGTLVTVSS
VL: EIVMTQSPATLSVSPGERASLSCRASQSVGSNLAWYQQKPGQAPRLLIFGASTRATGIPARFSGSRSGTEFTLTISSLQSEDFALYYCQQYNNWPPWTFGQGTKLEIK
For the molecule B3, in assay [3], the “EC50, inhibition of signalling by 0.5 ng/ml IL-33 in HEK-Blue IL-33 reporter cells (Abs. 620 nm); the curve levels off at about 0.4, not at 0” value came out at 0.44 nM. In addition, the binding result in assay [1] is on record as “no binding (tested: 1 ug/ml)”. In addition, the “EC50, inhibition of signalling by 0.5 ng/ml IL-1a (IL-1alpha) in the HEK-Blue IL-1 reporter assay (Abs. 620 nM)” value in [4] was found to be 0.18 nM. In [5], the “EC50 against IL-1alpha signaling, IL-1 reporter assay” value is under 1 nM and the “EC50 against IL-1beta signaling, IL-1 reporter assay” value is under 1 nM. For the same molecule, the binding result in assay [6] is “no binding (tested: 1 ug/ml)”. Also, in assay [7], the “EC50, inhibition of signalling by 0.5 ng/ml IL-1beta in HEK-Blue IL-1beta reporter cells (Abs. 620 nM)” value was 0.17 nM. Moreover, in assay [2], the Kd came to 0.4 nM.

B4: 37D11_21C2 (antibody, V domains shown)
VH: QVQIKESGPGLVKPSETLSLTCAVSGFSFSSGYYWGWIRQPPGKGLEWLGSFFHNGNTYYNPSLRSRVTISVDTSKNHFSLKLTSVTAADTAVYYCAGFGDLPHYHYYVMDVWGQGTTVTVSS
VL: EIVLTQSPATLSLSPGERATLSCRASQSVSSYLAWYQQKPGQAPRLLIYDASNRAIGIPARFSGSGSGTDFTLTISSLEPEDFAVYYCQQRSNWPPYTFGQGTKLEIK
Take B4: the binding result in assay [1] and in [6] was “no binding (tested: 1 ug/ml)” throughout. Moreover, the dissociation constant (Kd) in assay [2] turned out to be 13 nM.

B5: 10C8_15A1 (antibody, V domains shown)
VH: QVQLVESGGGVVQPGRSLRISCAASGFTFRSYGMHWVRQAPGKGLEWVAIIWHDESYKYYVDSVKGRFTISRDNSKNTLYLQMNSLRAEDTAVYYCARGDYYGSGSYYDAFDIWGQGTMVTVSS
VL: DIQMTQSPSSLSASVGDRVIITCRASQGISNYLAWFQQKPGKCPNLLIYAASTLRSGVPSRFSGSGSGTDFTLTISSLQPEDVATYYCQKYNSAPYTFGQGTKVEIK
B5: the binding result in assay [1] and in [6] was “no binding (tested: 1 ug/ml)” throughout. For the same molecule, in assay [2], the Kd was determined as 30 nM.

B6: 24G3_17C5 (antibody, V domains shown)
VH: EVQLLESGGGLVQRGGSLRLSCAASGFTFSSYAMSWVRQAPGKGLEWVSSISGSGDSTNYADSVKGRFTISRDNSKNTLHLQMNSLRAEDTAVYYCVRDYYYGMDVWGHGTTVTVSS
VL: EIVLTQSPATLSLSPGERATLSCRASQSVNSYLAWYQQKPGQAPRLLIYDASNRATGIPARFSGSGSGTDFTLTISSLEPEDFAVYYCQQRSYWPITFGQGTRLEIK
notes: Recombinant human antibody
Take B6: the binding result in assay [8] is given as “binds”. Further, in [2], the dissociation constant (Kd) was 37 nM.

B7: 38E10_21C3 (antibody, V domains shown)
VH: EVQLLESGGGLVQPGGSLRLSCAASGFTFSNYAMTWVRQAPGKGLEWVSSISISRAGTYYADSVKGRFTISRDNSKNTLNLQMNSLRAEDTAEYYCAREYYYGMDVWGQGTTVTVSS
VL: EIVLTQSPATLSLSPGERATLSCRASQSVSSYLAWYQQKPGQTPRLLIYDASNRATGIPARFSGSGSGTDFTLTISSLETEDFAVYYCQQLINWPLTFGGGTKLEIK
notes: Recombinant human antibody
Regarding B7, the Kd in assay [2] is 2 nM. Further, the binding result in assay [9] and in assay [10] was “no binding (tested: 1 ug/ml)” each time.

B8: 5D12_18A4 (antibody, V domains shown)
VH: QVQLQESGPGLVKPLGTLSLTCAVSGGSISNSNWWSWVRQPPGKGLEWIGEIYHSGSTNYNPSLKSRVTIALDWSKNQFSLQLRSVTAADTAVYYCARYGSGPFGGDCWGQGTLVTVSS
VL: DIQLTQSPSFLSASVGDRVTISCRASQGISSYLAWYQQKPGKAPKLLIYAASTLQGGVPSRFSGSGSGTTFTLTISSLQPEDFATYYCQQLNTYPFTFGPGTKLEIK
notes: Recombinant human antibody
Take B8: in assay [1], the binding result is listed as “no binding (tested: 1 ug/ml)”. Further, the dissociation constant (Kd) in assay [2] amounted to 19 nM.

B9: 36A10_21B6 (antibody, V domains shown)
VH: QGQVVESGGGVVQPGRSLRLSCAASGFTFSSYTLHWVRQAPGKGLEWVAVIWYDGSNKYYVDSVKGRFTISRDNSKNTLYLQMNSLRAEDTAVYYCAREYGSGSYYNVYYGMDVWGQGTTVTLSS
VL: DIVMTQSPLSLPVTPGEPASISCRSSQSLLHSNGYNYLDWYLQKPGQSPHLLIYLASNRASGVPDRFSGSGSGTDFTLKISRVEAEDVGFYYCMQTLQIPLTFGGGTKVEIK
As to B9, the “EC50, inhibition of signalling by 0.5 ng/ml IL-33 in HEK-Blue IL-33 reporter cells (Abs. 620 nM)” value in assay [3] was 1.76 nM. In addition, the binding result in assay [1] and in assay [6] was “no binding (tested: 1 ug/ml)” in each case. In assay [4], the “EC50, inhibition of signalling by 0.5 ng/ml IL-1a (IL-1alpha) in the HEK-Blue IL-1 reporter assay (Abs. 620 nm); row printed as 36A10_21C2” value was found to be 0.66 nM. In addition, the “EC50, inhibition of signalling by 0.5 ng/ml IL-1beta in HEK-Blue IL-1beta reporter cells (Abs. 620 nm); row printed as 36A10_21C2” value in assay [7] stood at 0.29 nM. Also, the dissociation constant Kd in [2] is 0.4 nM.

B10: 5G8_18A1 (antibody, V domains shown)
VH: QVELQESGPGLVKPSDTLSLTCTVTGGSISTYYWSWIRQPPGKGLEWIGYIFYTGTTNYNPSLKSRVTISVDASKNQFSLKLNSVTAADTAVYYCARDGSLDYWGQGALVTVSS
VL: DIQMTQSPSSLSASVGDRVTITCRASQSISNYLNWYQQKPGKAPKLLIFVASLLQSGVPSRFSGSGSGTDFTLTISSLQPEDFATYYCQQSYSTPFTFGPGTKLEIK
As for B10, the binding result in assay [1] and in [6] was “no binding (tested: 1 ug/ml)” each time. In addition, in assay [4], the “EC50, inhibition of signalling by 0.5 ng/ml IL-1a (IL-1alpha) in the HEK-Blue IL-1 reporter assay (Abs. 620 nM)” value is 0.83 nM. In [7], the “EC50, inhibition of signalling by 0.5 ng/ml IL-1beta in HEK-Blue IL-1beta reporter cells (Abs. 620 nM)” value stood at 0.58 nM. Moreover, the dissociation constant (Kd) in assay [2] came to 0.4 nM.

B11: 16H2_17D2 (antibody, V domains shown)
VH: QVQLVESGGGVVQPGGSLRLSCAASGFTFSSHGMHWVRQAPGKGLEWVAVIWYDGSNKFYTDSVQGRFTISRDNSKNTLNLQMNSLRAEDTAVYYCAREGLRAGYYFDFWGQGTLVTVSS
VL: DIQMTQSPSSLSASVGDRVTITCRASQRISFYSNWYQQKPGKAPKLLIYAASSLQSGVPSRFSGSGSGTDFTLTISSLQPEDFATYFCQQSHSTPLTFGGGTKLEIK
In the case of B11, the “EC50, inhibition of signalling by 0.5 ng/ml IL-1a (IL-1alpha) in the HEK-Blue IL-1 reporter assay (Abs. 620 nM)” value in assay [4] was 0.09 nM. Further, in [7], the “EC50, inhibition of signalling by 0.5 ng/ml IL-1beta in HEK-Blue IL-1beta reporter cells (Abs. 620 nM)” value is 0.1 nM. Moreover, in assay [2], the Kd was 0.2 nM. Also, the binding result in assay [9] and in [10] was “no binding (tested: 1 ug/ml)” in each case.

For the origin of these results see patent US20260008856A1 (BLUEFIN BIOMEDICINE, published 2026).
